Measured values: patent publication US20230312686A1 (Bristol-Myers Squibb, published 2023)
Several values for one entry are separate records, joined by “and”; a condition that tells them apart may be missing. Equal entries are not always repeated.

What was measured:
[1] = target: T1, Human glypican-3, recombinant, construct not stated (human, UniProt P51654 25-559, limits assumed, biotin in the positional scanning (site not stated)); test: ELISA, recombinant GPC3
T1 construct: also called recombinant GPC3; human GPC3

[2] = target: T2, Human glypican-3 on cells (Huh7, Hep3B, H446, Hep3B xenograft tissue) (human, UniProt P51654 25-554); test: flow cytometry on Huh7 cells
T2 construct: Endogenous GPC3 of human tumour cell lines; also called huGPC3 on cells; GPC3 receptor
Experimental: The binding of DG variants to huGPC3 in DG GPC3 AdxDCs mutants were evaluated by flow cytometry for binding to Huh7 carcinoma cells grown in DMEM media with 10% FBS. Cells were harvested using Versene, an EDTA cell dissociation solution from Lonza, Cat. #17-711E. Tumor cells (1E5 cells/reaction) were suspended in FACS buffer (PBS, 1% BSA, 0.05% Na Azide) and mixed with a serial dilution of AdxDC for one hour on ice. Cells were washed three times with FACS buffer, and bound AdxDC was detected with an in house anti-scaffold monoclonal Ab and PE-conjugated Antibody from (RnD Systems), cat #NL007, and read on a flow cytometer.

[3] = target: T3, Recombinant human glypican-3 (aa 1-559), His-tagged, R&D Systems (human, UniProt P51654 25-559); test: SPR 1-point off-rate, alkylated mutant vs parent
T3 construct: also called huGPC3; Hu GPC3-His

[4] = target: T4, Recombinant murine glypican-3 (aa 25-557), R&D Systems (murine, UniProt Q8CFZ4 25-557); test: SPR 1-point off-rate, alkylated mutant vs parent
T4 construct: also called muGPC3; Mu GPC3-His

[5] = target: T3, Recombinant human glypican-3 (aa …); test: SPR, Biacore T100, GPC3-His immobilised, 1:1 fit
Experimental: (§1) The binding affinities of the alkylated GPC3 DG mutant adnectins for human and murine GPC3 were further evaluated by Biacore T100 using HBS-P+ running buffer with direct immobilization of human and mouse GPC3 proteins [Hu (Fc 2,3) and Mu (Fc 4) GPC3-His (R&D Systems)] with a 200-1.56 nM series injected for 180s association, 600s dissociation.

[6] = target: T4, Recombinant murine glypican-3 (aa …); test: SPR, Biacore T100, GPC3-His immobilised, 1:1 fit
Experimental: as §1

[7] = target: T3, Recombinant human glypican-3 (aa …); test: SPR, as in the previous Examples
Experimental: (§2) For off-rate measurements, single 200 nM adnectin/AdxDC concentrations were injected using identical conditions. One 30s injection of 10 mM glycine pH 1.7 was used to remove bound adnectin and regenerate the GPC3 surfaces between assay cycles.
(§3) Rate constants kₐ (kₒₙ) and kd (koff) were derived from reference-subtracted sensorgrams fit to a 1:1 binding model in Biacore T100 Evaluation Software v2.0.4 (GE Healthcare). The affinity constant, KD was calculated from the ratio of rate constants kd/kₐ.
(§4) FITC Labeling: ADX_6077_F02 and non-binding control Adnectin were reduced with DTT or TCEP followed by G25 gel filtration chromatography or dialysis. Excess Fluorescein-5-maleimide reagent (Thermo Scientific) was then added and the mixture incubated at room temperature for approximately 2 hours followed by G25 gel filtration chromatography or extensive dialysis (3-4 buffer changes). The resulting degree of labeling was measured by absorbance following the manufacturer's instructions and/or by mass spectrometry. The binding affinities of FITC-labeled and PEGylated […] for human and murine GPC3 was evaluated as described in the previous Examples, and the results are summarized in Table 13.

[8] = target: T4, Recombinant murine glypican-3 (aa …); test: SPR, as in the previous Examples
Experimental: as §2, §3, §4

T1 sequence (P51654 25-559 limits assumed): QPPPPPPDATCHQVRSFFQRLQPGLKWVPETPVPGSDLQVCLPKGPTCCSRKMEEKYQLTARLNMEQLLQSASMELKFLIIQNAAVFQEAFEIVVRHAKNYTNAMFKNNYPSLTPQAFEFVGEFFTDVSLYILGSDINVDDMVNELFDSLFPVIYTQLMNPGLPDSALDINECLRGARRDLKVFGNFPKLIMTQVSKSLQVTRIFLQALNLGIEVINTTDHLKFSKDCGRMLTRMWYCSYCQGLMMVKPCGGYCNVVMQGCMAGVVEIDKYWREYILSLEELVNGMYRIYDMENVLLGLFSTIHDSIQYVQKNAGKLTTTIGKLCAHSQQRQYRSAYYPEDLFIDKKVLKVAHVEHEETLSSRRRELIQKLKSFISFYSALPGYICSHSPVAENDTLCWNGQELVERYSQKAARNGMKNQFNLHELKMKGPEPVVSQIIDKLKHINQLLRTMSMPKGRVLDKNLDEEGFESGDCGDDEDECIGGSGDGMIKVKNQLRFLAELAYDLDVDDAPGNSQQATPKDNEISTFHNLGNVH
T3 sequence (P51654 other isoform, or with tags, fused parts or gaps): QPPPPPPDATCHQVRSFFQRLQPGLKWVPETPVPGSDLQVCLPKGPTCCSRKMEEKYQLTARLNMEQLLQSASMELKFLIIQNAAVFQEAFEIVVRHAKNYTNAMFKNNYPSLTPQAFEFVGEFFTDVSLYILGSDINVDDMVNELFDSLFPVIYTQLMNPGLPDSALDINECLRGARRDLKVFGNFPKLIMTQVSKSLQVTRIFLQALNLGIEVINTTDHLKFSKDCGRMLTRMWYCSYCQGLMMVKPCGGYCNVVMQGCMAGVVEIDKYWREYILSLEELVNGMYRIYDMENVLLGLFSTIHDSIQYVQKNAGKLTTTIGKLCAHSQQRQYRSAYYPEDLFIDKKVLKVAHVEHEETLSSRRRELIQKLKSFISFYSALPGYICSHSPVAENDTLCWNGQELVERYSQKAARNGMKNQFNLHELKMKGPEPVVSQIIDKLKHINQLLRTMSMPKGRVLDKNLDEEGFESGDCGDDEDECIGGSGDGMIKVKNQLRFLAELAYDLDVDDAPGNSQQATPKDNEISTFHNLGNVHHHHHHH
T2 sequence (P51654 25-554 limits assumed): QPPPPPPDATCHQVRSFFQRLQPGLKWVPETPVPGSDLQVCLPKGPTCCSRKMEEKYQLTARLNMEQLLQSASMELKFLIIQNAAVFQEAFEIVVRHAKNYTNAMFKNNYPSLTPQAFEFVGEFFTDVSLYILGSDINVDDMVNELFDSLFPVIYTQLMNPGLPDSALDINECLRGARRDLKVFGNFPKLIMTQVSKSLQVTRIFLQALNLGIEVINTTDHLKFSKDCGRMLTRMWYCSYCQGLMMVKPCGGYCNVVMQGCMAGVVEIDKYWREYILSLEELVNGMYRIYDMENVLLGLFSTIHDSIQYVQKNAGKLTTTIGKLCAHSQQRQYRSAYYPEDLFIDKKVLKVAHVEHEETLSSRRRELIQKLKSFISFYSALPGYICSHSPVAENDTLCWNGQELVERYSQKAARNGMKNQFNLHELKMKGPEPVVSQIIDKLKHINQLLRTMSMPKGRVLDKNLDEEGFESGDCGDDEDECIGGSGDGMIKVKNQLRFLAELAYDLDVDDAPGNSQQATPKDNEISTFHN
T4 sequence (Q8CFZ4 25-557 limits assumed, form in doubt): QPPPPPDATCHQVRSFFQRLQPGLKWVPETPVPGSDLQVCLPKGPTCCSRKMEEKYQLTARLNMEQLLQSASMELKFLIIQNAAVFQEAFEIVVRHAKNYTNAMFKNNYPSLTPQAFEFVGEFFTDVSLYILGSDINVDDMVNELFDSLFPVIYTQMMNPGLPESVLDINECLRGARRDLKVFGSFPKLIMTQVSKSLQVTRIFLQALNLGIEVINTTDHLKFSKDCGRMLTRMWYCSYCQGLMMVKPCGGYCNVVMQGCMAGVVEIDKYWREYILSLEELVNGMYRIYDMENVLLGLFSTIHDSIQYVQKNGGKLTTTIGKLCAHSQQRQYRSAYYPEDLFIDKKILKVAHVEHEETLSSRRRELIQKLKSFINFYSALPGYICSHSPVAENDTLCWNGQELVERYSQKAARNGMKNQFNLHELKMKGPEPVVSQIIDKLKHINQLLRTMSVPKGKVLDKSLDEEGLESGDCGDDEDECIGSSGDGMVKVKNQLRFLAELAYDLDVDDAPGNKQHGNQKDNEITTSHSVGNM

| Binder | ELISA OD [1] | huGPC3 on cells EC50 (mutant/parent) [2] | huGPC3 koff (mut/par) [3] | muGPC3 koff (mut/par) [4] | Fold affinity (KD) difference vs alkylated parent [5] | Kd [5] | koff [5] | kon [5] | Fold affinity (KD) difference vs alkylated parent [6] | Kd [6] | koff [6] | kon [6] | further results |
| --- | --- | --- | --- | --- | --- | --- | --- | --- | --- | --- | --- | --- | --- |
| ADX_4606_F06 (designed binder) MGVSDVPRDLEVVAATPTSLLISWNSGHSGQYYRITYGETGGNSPVQEFTVPRYGYTATISGLKPGVDYTITVYAVAHSEASAPISINYRTEIDKPSQ | 1.73 OD | – | – | – | – | – | – | – | – | – | – | – | – |
| ADX_5273_C01 (designed binder) MGVSDVPRDLEVVAATPTSLLISWSDPYEEERYYRITYGETGGNSPVQEFTVPAFHTTATISGLKPGVDYTITVYAVTYKHKYAYYYPPISINYRTEIDKPSQ | 1.35 OD | – | – | – | – | – | – | – | – | – | – | – | – |
| ADX_5273_D01 (designed binder) MGVSDVPRDLEVVAATPTSLLISWEPSYKDDRYYRITYGETGGNSPVQEFTVPSFHQTATISGLKPGVDYTITVYAVTYEPDEYYFYYPISINYRTEIDKPSQ | 2.1 OD | – | – | – | – | – | – | – | – | – | – | – | – |
| ADX_4578_H08 (designed binder) MGVSDVPRDLEVVAATPTSLLISWSGYDYGDSYYRITYGETGGNSPVQEFTVPDGSNTATISGLKPGVDYTITVYAVEAYGKGYTRYTPISINYRTEIDKPSQ | 1.02 OD | – | – | – | – | – | – | – | – | – | – | – | – |
| ADX_6077_F02 DG→DA mutant, alkylated (designed binder, C-terminal cysteine alkylated, also called P1-055660; PI-055660) GVSDVPRDLEVVAATPTSLLISWSDDYHAHRYYRITYGETGGNSPVQEFTVPGEHVTATISGLKPGVDYTITVYAVTYDAEKAATDWSISINYRTPC | – | 1.3 fold | 3.9 fold | 3.7 fold | 4.5 fold | 25.4 nM | 0.00183 s⁻¹ | 72200 M⁻¹ s⁻¹ | 4.3 fold | 16 nM | 0.0017 s⁻¹ | 100000 M⁻¹ s⁻¹ | – |
| ADX_6077_F02 DG→DV mutant, alkylated (designed binder, C-terminal cysteine alkylated, also called P1-055672) GVSDVPRDLEVVAATPTSLLISWSDDYHAHRYYRITYGETGGNSPVQEFTVPGEHVTATISGLKPGVDYTITVYAVTYDVEKAATDWSISINYRTPC | – | – | 7.9 fold | 7 fold | 7.8 fold | 43.5 nM | 0.00309 s⁻¹ | 71000 M⁻¹ s⁻¹ | 7.8 fold | 30 nM | 0.0025 s⁻¹ | 85000 M⁻¹ s⁻¹ | – |
| ADX_6077_F02 DG→DS mutant, alkylated (designed binder, C-terminal cysteine alkylated, also called P1-055667) GVSDVPRDLEVVAATPTSLLISWSDDYHAHRYYRITYGETGGNSPVQEFTVPGEHVTATISGLKPGVDYTITVYAVTYDSEKAATDWSISINYRTPC | – | 1.4 fold | 3.5 fold | 3.3 fold | 4.2 fold | 23.3 nM | 0.00166 s⁻¹ | 71600 M⁻¹ s⁻¹ | 3.9 fold | 15 nM | 0.0015 s⁻¹ | 100000 M⁻¹ s⁻¹ | – |
| ADX_6077_F02 DG→DL mutant, alkylated (designed binder, C-terminal cysteine alkylated, also called P1-055671) GVSDVPRDLEVVAATPTSLLISWSDDYHAHRYYRITYGETGGNSPVQEFTVPGEHVTATISGLKPGVDYTITVYAVTYDLEKAATDWSISINYRTPC | – | 1.7 fold | 3.6 fold | 3.1 fold | 3.9 fold | 21.9 nM | 0.00159 s⁻¹ | 72600 M⁻¹ s⁻¹ | 3.8 fold | 15 nM | 0.0015 s⁻¹ | 100000 M⁻¹ s⁻¹ | – |
| ADX_6077_F02 DG→GG mutant, alkylated (designed binder, C-terminal cysteine alkylated, also called P1-055670) GVSDVPRDLEVVAATPTSLLISWSDDYHAHRYYRITYGETGGNSPVQEFTVPGEHVTATISGLKPGVDYTITVYAVTYGGEKAATDWSISINYRTPC | – | – | 14 fold | 12 fold | – | – | – | – | – | – | – | – | – |
| ADX_6077_F02 DG→EG mutant, alkylated (designed binder, C-terminal cysteine alkylated, also called P1-055673) GVSDVPRDLEVVAATPTSLLISWSDDYHAHRYYRITYGETGGNSPVQEFTVPGEHVTATISGLKPGVDYTITVYAVTYEGEKAATDWSISINYRTPC | – | 1.6 fold | 5.4 fold | 5.1 fold | 5.3 fold | 30 nM | 0.00229 s⁻¹ | 76300 M⁻¹ s⁻¹ | 5.1 fold | 19 nM | 0.0021 s⁻¹ | 110000 M⁻¹ s⁻¹ | – |
| 6077_F02-FITC (designed binder, fluorescein-5-maleimide on the C-terminal cysteine, also called FITC-labeled ADX_6077_F02) MGVSDVPRDLEVVAATPTSLLISWSDDYHAHRYYRITYGETGGNSPVQEFTVPGEHVTATISGLKPGVDYTITVYAVTYDGEKAATDWSISINYRTPCHHHHHH | – | – | – | – | – | – | – | – | – | – | – | – | Kd [7]: 6.11 nM; koff [7]: 0.000498 s⁻¹; kon [7]: 81500 M⁻¹ s⁻¹; Kd [8]: 3.97 nM; koff [8]: 0.000446 s⁻¹; kon [8]: 112000 M⁻¹ s⁻¹ |
| 6077_F02-PEG3.4 (designed binder, PEG3.4, site not stated, The PEGylation is not described; also called PEGylated anti-GPC3 adnectin (PEG3.4)) MGVSDVPRDLEVVAATPTSLLISWSDDYHAHRYYRITYGETGGNSPVQEFTVPGEHVTATISGLKPGVDYTITVYAVTYDGEKAATDWSISINYRTPCHHHHHH | – | – | – | – | – | – | – | – | – | – | – | – | Kd [7]: 8.14 nM; koff [7]: 0.000584 s⁻¹; kon [7]: 71800 M⁻¹ s⁻¹; Kd [8]: 5.12 nM; koff [8]: 0.000523 s⁻¹; kon [8]: 102000 M⁻¹ s⁻¹ |
| 6077_F02.dPEG (designed binder, dPEG, site and size not stated, The PEGylation is not described; also called PEGylated anti-GPC3 adnectin (dPEG)) MGVSDVPRDLEVVAATPTSLLISWSDDYHAHRYYRITYGETGGNSPVQEFTVPGEHVTATISGLKPGVDYTITVYAVTYDGEKAATDWSISINYRTPCHHHHHH | – | – | – | – | – | – | – | – | – | – | – | – | Kd [7]: 8.19 nM and 8.1 nM; koff [7]: 0.000602 s⁻¹ and 0.000607 s⁻¹; kon [7]: 73500 M⁻¹ s⁻¹ and 75000 M⁻¹ s⁻¹; Kd [8]: 5.43 nM and 5.26 nM; koff [8]: 0.000559 s⁻¹ and 0.000557 s⁻¹; kon [8]: 103000 M⁻¹ s⁻¹ and 106000 M⁻¹ s⁻¹ |

The next lines start with results.

| ELISA OD [1] | huGPC3 on cells EC50 (mutant/parent) [2] | huGPC3 koff (mut/par) [3] | muGPC3 koff (mut/par) [4] | Fold affinity (KD) difference vs alkylated parent [5] | Kd [5] | koff [5] | kon [5] | Fold affinity (KD) difference vs alkylated parent [6] | Kd [6] | koff [6] | kon [6] | Binder | further results |
| --- | --- | --- | --- | --- | --- | --- | --- | --- | --- | --- | --- | --- | --- |
| 0.17 OD | – | – | – | – | – | – | – | – | – | – | – | ADX_4578_B06 (designed binder) MGVSDVPRDLEVVAATPTSLLISWFPDRYVYYITYGETGGNSPVQEFTVEGHKQTAYISGLKPGVDYTITVYAIYYYPDDFQGYPQPISINYRTEGSGS | – |
| 0.6 OD | – | – | – | – | – | – | – | – | – | – | – | ADX_4578_F03 (designed binder) MGVSDVPRDLEVVAATPTSLLISWHPPHPNIVSYHIYYGETGGNSPVQEFTVEGSKSTAKISGLKPGVDYTITVYAVAPEIEKYYQIWINYRTEGSGS | – |
| – | 1.1 fold | 5.2 fold | 4.8 fold | 4.2 fold | 23.5 nM | 0.00221 s⁻¹ | 94000 M⁻¹ s⁻¹ | 4.1 fold | 16 nM | 0.002 s⁻¹ | 130000 M⁻¹ s⁻¹ | ADX_6077_F02 DG→SG mutant, alkylated (designed binder, C-terminal cysteine alkylated, also called P1-055668) VSDVPRDLEVVAATPTSLLISWSDDYHAHRYYRITYGETGGNSPVQEFTVPGEHVTATISGLKPGVDYTITVYAVTYSGEKAATDWSISINYRTPC | – |
| 2.37 OD | – | – | – | – | – | – | – | – | – | – | – | ADX_5274_E01 (designed binder) MGVSDVPRDLEVVAATPTSLLISWSGDYHPHRYYRITYGETGGNSPVQEFTVPGEHETATISGLKPGVDYTITVYAVTYDGEKADKYPPISINYRTEIDKPSQ | – |
| – | 1.1 fold | 5.9 fold | 5.5 fold | 4.2 fold | 23.7 nM | 0.00243 s⁻¹ | 103000 M⁻¹ s⁻¹ | 4 fold | 15 nM | 0.0021 s⁻¹ | 140000 M⁻¹ s⁻¹ | ADX_6077_F02 DG→AG mutant, alkylated (designed binder, C-terminal cysteine alkylated, also called P1-055669) GVSDVPRDLEVVAATPTSLLISWSDDYHAHRYYRITYGETGGNSPVQEFTVPGEHVTATISGLKPGVDYTITVYAVTYAGEKAATDWSISINYRTPC | – |
